Each binder was assayed against integrin αvβ3 on activated rat hepatic stellate cells (HSC) (rat, UniProt Q8R2H2 26-787) (assay: cell-based or functional assay).
Chain of integrin αvβ3 on activated rat hepatic stellate cells (HSC) (Q8R2H2 26-787): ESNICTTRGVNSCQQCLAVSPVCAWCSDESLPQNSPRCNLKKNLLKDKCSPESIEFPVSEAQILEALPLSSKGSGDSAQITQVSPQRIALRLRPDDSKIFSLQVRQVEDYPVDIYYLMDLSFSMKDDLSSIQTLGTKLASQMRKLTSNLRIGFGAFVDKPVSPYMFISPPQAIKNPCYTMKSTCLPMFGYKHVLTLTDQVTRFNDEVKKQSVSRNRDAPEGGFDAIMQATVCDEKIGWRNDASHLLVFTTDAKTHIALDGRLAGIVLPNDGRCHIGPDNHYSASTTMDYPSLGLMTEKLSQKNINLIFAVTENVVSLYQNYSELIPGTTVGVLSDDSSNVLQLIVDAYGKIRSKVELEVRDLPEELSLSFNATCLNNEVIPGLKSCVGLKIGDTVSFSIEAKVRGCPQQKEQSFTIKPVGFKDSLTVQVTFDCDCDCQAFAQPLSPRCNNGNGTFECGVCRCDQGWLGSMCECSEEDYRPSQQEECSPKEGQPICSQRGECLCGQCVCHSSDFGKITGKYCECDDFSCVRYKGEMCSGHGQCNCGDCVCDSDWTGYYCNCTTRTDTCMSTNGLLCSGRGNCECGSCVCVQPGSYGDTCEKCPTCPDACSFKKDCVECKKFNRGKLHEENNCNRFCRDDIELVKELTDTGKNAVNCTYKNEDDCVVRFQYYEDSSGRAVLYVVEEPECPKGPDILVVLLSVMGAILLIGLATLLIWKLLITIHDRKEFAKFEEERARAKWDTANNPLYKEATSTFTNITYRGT

Binder | HSC adhesion, level relative to wild-type CTGF4 [%]
CTGF4 mutant M1 (I257A, R258A, T259A, P260A) (ligand) EENIKKGKKCAAAAKISKPIKFELSGCTSMKTYRAKFCGVCTDGRCCTPHRTTTLPVEFKCPDGEVMKKNMMFIKTCACHYNCPGDNDIFESLYYRKMYGDMA | 33
CTGF4 mutant M3 (P265A, I266A, K267A, F268A) (ligand) EENIKKGKKCIRTPKISKAAAAELSGCTSMKTYRAKFCGVCTDGRCCTPHRTTTLPVEFKCPDGEVMKKNMMFIKTCACHYNCPGDNDIFESLYYRKMYGDMA | 80
CTGF4 mutant M4 (E269A, L270A, S271A, G272A) (ligand) EENIKKGKKCIRTPKISKPIKFAAAACTSMKTYRAKFCGVCTDGRCCTPHRTTTLPVEFKCPDGEVMKKNMMFIKTCACHYNCPGDNDIFESLYYRKMYGDMA | 46
